# Laboratory results reported in PMC10397247.
# T1: 4H1877-AA
# T1 chain: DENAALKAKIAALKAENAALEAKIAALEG
# T2: 4H891-AA
# T2 chain: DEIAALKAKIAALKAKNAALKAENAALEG
# T3: 4H850-AA
# T3 chain: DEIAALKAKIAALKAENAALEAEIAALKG
# T4: 4H745-AA
# T4 chain: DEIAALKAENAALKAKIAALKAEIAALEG
# T5: 4H2330-AA
# T5 chain: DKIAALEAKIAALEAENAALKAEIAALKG
# T6: 4H3753-AA
# T6 chain: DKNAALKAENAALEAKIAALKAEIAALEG
# T7: 4H3009-AA
# T7 chain: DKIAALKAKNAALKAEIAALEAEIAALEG
# T8: 4H2473-AA
# T8 chain: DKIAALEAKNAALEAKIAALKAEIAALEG
# T9: 4H1842-AA
# T9 chain: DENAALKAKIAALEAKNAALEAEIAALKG
# T10: 4H310-AA
# T10 chain: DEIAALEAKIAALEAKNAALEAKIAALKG
# T11: 4H2438-AA
# T11 chain: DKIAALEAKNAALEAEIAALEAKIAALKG
# T12: 4H629-AA
# T12 chain: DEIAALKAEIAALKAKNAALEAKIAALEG
# T13: 4H1864-AA
# T13 chain: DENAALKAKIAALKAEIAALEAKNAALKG
# T14: 4H3130-AA
# T14 chain: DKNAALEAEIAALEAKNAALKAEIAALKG
# T15: 4H2698-AA
# T15 chain: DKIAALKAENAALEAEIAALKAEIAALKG
# T16: 4H3590-AA
# T16 chain: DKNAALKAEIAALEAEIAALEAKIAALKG
# T17: 4H2253-AA
# T17 chain: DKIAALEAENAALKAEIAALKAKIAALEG
# T18: 4H3410-AA
# T18 chain: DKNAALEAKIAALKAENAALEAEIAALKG
# T19: 4H3016-AA
# T19 chain: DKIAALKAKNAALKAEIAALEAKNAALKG
# T20: 4H485-AA
# T20 chain: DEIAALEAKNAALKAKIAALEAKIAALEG
# T21: 4H570-AA
# T21 chain: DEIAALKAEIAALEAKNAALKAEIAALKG
# T22: 4H930-AA
# T22 chain: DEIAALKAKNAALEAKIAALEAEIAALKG
# T23: 4H94-AA
# T23 chain: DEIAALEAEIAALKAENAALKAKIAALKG
# T24: 4H2649-AA
# T24 chain: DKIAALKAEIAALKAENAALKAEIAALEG
# T25: 4H3381-AA
# T25 chain: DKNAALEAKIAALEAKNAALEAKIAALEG
# T26: 4H909-AA
# T26 chain: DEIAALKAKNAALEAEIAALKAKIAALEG
# T27: 4H2725-AA
# T27 chain: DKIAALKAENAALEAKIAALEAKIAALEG
# T28: 4H2109-AA
# T28 chain: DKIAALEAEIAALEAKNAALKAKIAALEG
# T29: 4H458-AA
# T29 chain: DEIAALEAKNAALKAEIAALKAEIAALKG
# T30: 4H3120-AA
# T30 chain: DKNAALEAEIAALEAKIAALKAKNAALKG
# T31: 4H2389-AA
# T31 chain: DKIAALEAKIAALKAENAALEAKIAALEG
# T32: 4H3395-AA
# T32 chain: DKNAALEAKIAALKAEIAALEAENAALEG
# T33: 4H2865-AA
# T33 chain: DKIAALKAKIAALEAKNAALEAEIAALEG
# T34: 4H536-AA
# T34 chain: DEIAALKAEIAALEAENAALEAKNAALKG
# T35: 4H2274-AA
# T35 chain: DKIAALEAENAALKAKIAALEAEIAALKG
# T36: 4H2162-AA
# T36 chain: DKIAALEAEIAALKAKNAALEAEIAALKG
# T37: 4H3165-AA
# T37 chain: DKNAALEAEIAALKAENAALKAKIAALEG
# T38: 4H710-AA
# T38 chain: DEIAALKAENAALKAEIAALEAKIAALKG
# T39: 4H3865-AA
# T39 chain: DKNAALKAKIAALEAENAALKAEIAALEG
# T40: 4H797-AA
# T40 chain: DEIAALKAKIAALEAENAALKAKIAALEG
# T41: 4H3697-AA
# T41 chain: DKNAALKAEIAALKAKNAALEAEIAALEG
# T42: P6-AA-1HGe-S
# T42 chain: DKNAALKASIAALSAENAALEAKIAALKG
# T43: P6-AA-1HGe-H
# T43 chain: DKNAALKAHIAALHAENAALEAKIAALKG
# T44: P6-AA-1HGe-W
# T44 chain: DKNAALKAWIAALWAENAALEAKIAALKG
# T45: P6-AA-1HGe-A
# T45 chain: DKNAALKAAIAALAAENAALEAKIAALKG
# T46: P6-AA-1HGe-R
# T46 chain: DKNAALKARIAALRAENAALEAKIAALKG
# T47: O7-AA
# T47 chain: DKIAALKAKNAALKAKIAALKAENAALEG
# T48: O5-AA
# T48 chain: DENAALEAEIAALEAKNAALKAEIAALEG
# T49: P6-AA-1HGe-T
# T49 chain: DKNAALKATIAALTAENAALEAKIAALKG
# T50: P9-AA
# T50 chain: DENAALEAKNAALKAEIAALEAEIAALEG
# T51: O6-AA
# T51 chain: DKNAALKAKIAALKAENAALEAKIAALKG
# T52: P10-AA
# T52 chain: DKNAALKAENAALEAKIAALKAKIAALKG
# T53: P6-AA-1HGe-D
# T53 chain: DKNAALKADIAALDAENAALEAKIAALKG
# T54: P6-AA-1HGe-Q
# T54 chain: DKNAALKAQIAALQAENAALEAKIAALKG
# T55: P6-AA-1HGe-M
# T55 chain: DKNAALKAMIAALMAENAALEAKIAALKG
# T56: O8-AA
# T56 chain: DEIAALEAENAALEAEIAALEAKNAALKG
# Experiments:
# Test in all cases: two-hybrid library CCmax;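 also: natural log of median RNA to DNA barcode read ratio; higher means stronger binding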
# [1] = molecular target: T1, 4H1877-AA; conditions: mean of both orientations
# [2] = molecular target: T2, 4H891-AA; conditions: mean of both orientations
# [3] = molecular target: T3, 4H850-AA; conditions: mean of both orientations
# [4] = molecular target: T4, 4H745-AA; conditions: mean of both orientations
# [5] = molecular target: T5, 4H2330-AA
# [6] = molecular target: T6, 4H3753-AA; conditions: mean of both orientations
# [7] = molecular target: T7, 4H3009-AA; conditions: mean of both orientations
# [8] = molecular target: T8, 4H2473-AA; conditions: mean of both orientations
# [9] = molecular target: T9, 4H1842-AA
# [10] = molecular target: T10, 4H310-AA; conditions: mean of both orientations
# [11] = molecular target: T11, 4H2438-AA; conditions: mean of both orientations
# [12] = molecular target: T12, 4H629-AA; conditions: mean of both orientations
# [13] = molecular target: T13, 4H1864-AA; conditions: mean of both orientations
# [14] = molecular target: T14, 4H3130-AA; conditions: mean of both orientations
# [15] = molecular target: T15, 4H2698-AA; conditions: mean of both orientations
# [16] = molecular target: T16, 4H3590-AA; conditions: mean of both orientations
# [17] = molecular target: T17, 4H2253-AA; conditions: mean of both orientations
# [18] = molecular target: T18, 4H3410-AA; conditions: mean of both orientations
# [19] = molecular target: T19, 4H3016-AA; conditions: mean of both orientations
# [20] = molecular target: T20, 4H485-AA; conditions: mean of both orientations
# [21] = molecular target: T21, 4H570-AA; conditions: mean of both orientations
# [22] = molecular target: T22, 4H930-AA; conditions: mean of both orientations
# [23] = molecular target: T23, 4H94-AA; conditions: mean of both orientations
# [24] = molecular target: T24, 4H2649-AA; conditions: mean of both orientations
# [25] = molecular target: T25, 4H3381-AA; conditions: mean of both orientations
# [26] = molecular target: T26, 4H909-AA; conditions: mean of both orientations
# [27] = molecular target: T27, 4H2725-AA
# [28] = molecular target: T28, 4H2109-AA; conditions: mean of both orientations
# [29] = molecular target: T29, 4H458-AA; conditions: mean of both orientations
# [30] = molecular target: T30, 4H3120-AA; conditions: mean of both orientations
# [31] = molecular target: T31, 4H2389-AA; conditions: mean of both orientations
# [32] = molecular target: T32, 4H3395-AA; conditions: mean of both orientations
# [33] = molecular target: T33, 4H2865-AA; conditions: mean of both orientations
# [34] = molecular target: T34, 4H536-AA; conditions: mean of both orientations
# [35] = molecular target: T35, 4H2274-AA; conditions: mean of both orientations
# [36] = molecular target: T36, 4H2162-AA; conditions: mean of both orientations
# [37] = molecular target: T37, 4H3165-AA; conditions: mean of both orientations
# [38] = molecular target: T38, 4H710-AA; conditions: mean of both orientations
# [39] = molecular target: T39, 4H3865-AA; conditions: mean of both orientations
# [40] = molecular target: T40, 4H797-AA; conditions: mean of both orientations
# [41] = molecular target: T41, 4H3697-AA; conditions: mean of both orientations
# [42] = molecular target: T42, P6-AA-1HGe-S; conditions: mean of both orientations
# [43] = molecular target: T43, P6-AA-1HGe-H; conditions: mean of both orientations
# [44] = molecular target: T44, P6-AA-1HGe-W; conditions: mean of both orientations
# [45] = molecular target: T45, P6-AA-1HGe-A; conditions: mean of both orientations
# [46] = molecular target: T46, P6-AA-1HGe-R; conditions: mean of both orientations
# [47] = molecular target: T47, O7-AA; conditions: mean of both orientations
# [48] = molecular target: T48, O5-AA
# [49] = molecular target: T49, P6-AA-1HGe-T; conditions: mean of both orientations
# [50] = molecular target: T50, P9-AA; conditions: mean of both orientations
# [51] = molecular target: T51, O6-AA; conditions: mean of both orientations
# [52] = molecular target: T52, P10-AA; conditions: mean of both orientations
# [53] = molecular target: T53, P6-AA-1HGe-D; conditions: mean of both orientations
# [54] = molecular target: T54, P6-AA-1HGe-Q; conditions: mean of both orientations
# [55] = molecular target: T55, P6-AA-1HGe-M; conditions: mean of both orientations
# [56] = molecular target: T56, O8-AA; conditions: mean of both orientations
binder,measurement,setting,value
DENAALKAKIAALEAKNAALEAEIAALKG [4H1842-AA],interaction score,[1],-1.15
same,interaction score,[2],-1.42
same,interaction score,[3],0.256
same,interaction score,[4],-1.86
same,interaction score,[5],-1.35
same,interaction score,[6],-1.52
same,interaction score,[7],-1.78
same,interaction score,[8],-1.44
same,interaction score,[9],1.88
same,interaction score,[10],0.761
same,interaction score,[11],-1.14
same,interaction score,[12],-1.59
same,interaction score,[13],-1.82
same,interaction score,[14],0.65
same,interaction score,[15],-0.986
same,interaction score,[16],-0.391
same,interaction score,[17],-1.72
same,interaction score,[18],-0.8
same,interaction score,[19],-1.43
same,interaction score,[20],-1.94
same,interaction score,[21],0.585
same,interaction score,[22],-1.21
same,interaction score,[23],-1.17
same,interaction score,[24],-1.27
same,interaction score,[25],-1.2
same,interaction score,[26],-1.17
same,interaction score,[27],-1.86
same,interaction score,[28],-1.43
same,interaction score,[29],-1.14
same,interaction score,[30],-1.44
same,interaction score,[31],-1.52
same,interaction score,[32],-2.04
same,interaction score,[33],-0.0645
same,interaction score,[34],-1.7
same,interaction score,[35],-1.6
same,interaction score,[36],-1.21
same,interaction score,[37],-1.43
same,interaction score,[38],-1.63
same,interaction score,[39],-0.938
same,interaction score,[40],-1.34
same,interaction score,[41],-1.01
DENAALEAEIAALEAKNAALKAEIAALEG [O5-AA],interaction score,[42],2.12
same,interaction score,[43],2.44
same,interaction score,[44],2.02
same,interaction score,[45],2.15
same,interaction score,[46],2.38
same,interaction score,[47],-0.71
same,interaction score,[48],-1.71
same,interaction score,[49],2.21
same,interaction score,[50],-1.56
same,interaction score,[51],1.88
same,interaction score,[52],0.434
same,interaction score,[53],0.905
same,interaction score,[54],2.4
same,interaction score,[55],2.3
same,interaction score,[56],-0.935
